Results published in patent US20210315933A1 (TCR2 THERAPEUTICS, published 2021).
Read-outs that look alike come from different tables or passages of the source.

T1: human IL13Rα2 on cells (human, UniProt Q14627 27-380)
T1 construct: whole, on cells; also called hIL13Rα2
T1 sequence (looked up): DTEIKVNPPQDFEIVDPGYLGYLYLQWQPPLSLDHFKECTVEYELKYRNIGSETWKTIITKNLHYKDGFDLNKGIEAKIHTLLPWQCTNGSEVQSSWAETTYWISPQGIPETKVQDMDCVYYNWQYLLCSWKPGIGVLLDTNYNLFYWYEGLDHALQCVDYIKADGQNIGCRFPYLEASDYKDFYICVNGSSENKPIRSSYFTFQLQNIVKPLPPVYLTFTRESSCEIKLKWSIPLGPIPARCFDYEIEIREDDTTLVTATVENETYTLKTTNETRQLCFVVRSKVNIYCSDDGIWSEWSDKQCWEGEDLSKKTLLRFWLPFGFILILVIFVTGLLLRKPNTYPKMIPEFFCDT

T2: recombinant human IL13Rα2 fused to an Fc domain of human IgG1 (hIL13Rα2-Fc) (human, UniProt Q14627 27-343, limits assumed)
T2 construct: Bought construct (R&D Systems); The Fc can be removed by Factor Xa, so a Factor Xa site lies between the parts; not shown: Fc domain of human IgG1
T2 sequence (looked up): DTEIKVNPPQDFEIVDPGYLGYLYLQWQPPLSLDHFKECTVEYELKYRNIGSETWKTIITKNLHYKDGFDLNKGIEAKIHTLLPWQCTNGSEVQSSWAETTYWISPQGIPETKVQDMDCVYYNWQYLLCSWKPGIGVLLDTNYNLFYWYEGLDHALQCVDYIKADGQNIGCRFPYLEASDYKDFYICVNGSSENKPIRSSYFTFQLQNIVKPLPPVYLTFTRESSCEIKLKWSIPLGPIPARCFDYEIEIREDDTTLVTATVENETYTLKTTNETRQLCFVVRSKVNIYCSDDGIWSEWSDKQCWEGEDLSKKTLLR

T3: Human MUC16 polypeptide (MUC16 ectodomain peptide) (human)
T3 construct: Analyte of the Octet titration and antigen of the binning assay; also called MUC16 peptide; MUC16^ecto peptide
T3 peptide: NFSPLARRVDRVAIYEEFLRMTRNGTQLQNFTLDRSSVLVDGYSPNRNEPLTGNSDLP


Assays:
human IL13Rα2 on cells [1] = target: T1, human IL13Rα2 on cells; test: flow cytometry; cell line not stated
[2] = target: T2, recombinant human IL13Rα2 fused to an …; test: Octet KD relative to clone 2 parental
Protocol: (§1) Two clones were chosen for humanization. […] Each humanized nanobody was analyzed by Octet at 500 nM on an Ni-NTA sensor, with three fold dilutions of antigen (IL13Rα2-Fc) at 125 nM, 41.66 nM, and 13.86 nM. A summary of the octed measurements for each of the humanized variants depicted in FIG. 1 is shown in Table 1 (clone 1) and Table 2 (clone 2).

[3] = target: T2, recombinant human IL13Rα2 fused to an …; test: Octet (BLI); nanobody on Ni-NTA sensor, IL13Rα2-Fc in solution
Protocol: as §1

human IL13Rα2 on cells [4] = target: T1, human IL13Rα2 on cells; test: flow cytometry; cell line not stated; remark: listed apart in the source
[5] = target: T2, recombinant human IL13Rα2 fused to an …; test: Octet KD relative to clone 1 parental
Protocol: as §1

[6] = target: T3, Human MUC16 polypeptide (MUC16 …); test: Octet (BLI), NTA biosensor; His-tagged sdAb on sensor, MUC16 peptide titrated; 1:1 global fit
Protocol: FIGS. 5A-C show titration and measurement of binding affinity of parental (llama) and humanized anti-MUC16 single chain antibody (VHH). FIG. 5A is a diagram illustrating the experimental procedure by which the VHH binders produced in Example 5 are screened using an NTA biosensor (nickel coated surface). The His-tagged MUC16 sdAbs (3.25 μg/ml) are bound to the biosensor, and the MUC16 peptide is added at concentrations of 0, 1.56, 6.25, 25, 50, 100 or 200 nM. Buffer: 1× Octet; 1× Corning® Cellgro® PBS (cat. 21-040-CM) containing 0.02% Tween® 20 at 30° C. Sensors: Pall Forte Bio Dip & Read (cat. 18-5102). FIG. 5B (clone R3Mu4 parental and humanized variants) and FIG. 5C (clone R3Mu29 parental and humanized variants) show binding kinetics of the sdAbs to the MUC16 target (see also Table 1). These curves were used to derive binding affinity constant for each protein and to assess the effect of humanization on antigen binding.
The VHH binders produced in Example 5 are screened using an NTA biosensor (nickel column, see FIG. 5A for a drawing outlining the method). The His-tagged MUC16 sdAbs (3.25 μg/ml) are bound to the column, and then the MUC16 peptide is passed through the column at concentrations of 200, 100, 50, 25, 6.25, 1.56, and 0 nM. Buffer: 1× Corning® Cellgro® PBS pH 7.4 (cat. 21-040-CM) containing 0.02% Tween® 20) at 30° C. Sensors: Pall Forte Bio Dip & Read (cat. 18-5102).

Row | Flow Cytometry MFI (human IL13Rα2 on cells [1]) | KD fold difference [2] | Kd [3] | Flow Cytometry MFI (human IL13Rα2 on cells [4]) | KD fold difference [5] | Kd [6] | Binder
1 |  | 1.1 fold | 0.93 µM |  |  |  | anti-IL13Rα2 Clone 2 humanized variant 2-h1 (VHH) VHH: EVQLVESGGGLVQPGGSLRLSCAASGFASDDYIMGWFRQAPGKGLEGVSCISSRYANTVYADSVKGRFRISRGNAKNTVYLQMSALRPEDTAVYYCAMDSRRVTCPEISTMHRNFDSWGQGTQVTVSS
2 | 3060 MFI | 1.2 fold | 0.96 µM |  |  |  | anti-IL13Rα2 Clone 2 humanized variant 2-h4 (VHH) VHH: EVQLVESGGGLVQPGGSLRLSCAASGFASDDYIMGWFRQAPGKGLEGVSCISSRYANTVYADSVKGRFTISRGNAKNTVYLQMNSLRPEDTAVYYCAMDSRRVTCPEISTMHRNFDSWGQGTQVTVSS
3 | 3070 MFI | 1.1 fold | 0.91 µM |  |  |  | anti-IL13Rα2 Clone 2 humanized variant 2-h3 (VHH) VHH: EVQLVESGGGLVQPGGSLRLSCAASGFASDDYIMGWFRQAPGKGLEGVSCISSRYANTVYADSVKGRFTISRGNAKNTVYLQMSSLRPEDTAVYYCAMDSRRVTCPEISTMHRNFDSWGQGTQVTVSS
4 | 1450 MFI | 1.1 fold | 0.87 µM |  |  |  | anti-IL13Rα2 Clone 2 humanized variant 2-h5 (VHH) VHH: EVQLVESGGGLVQPGGSLRLSCAASGFASDDYIMGWFRQAPGKGLEGVSCISSRYANTVYADSVKGRFTISRDNAKNTVYLQMNSLRPEDTAVYYCAMDSRRVTCPEISTMHRNFDSWGQGTQVTVSS
5 |  |  | 0.00191 µM | 842 MFI | 3 fold |  | anti-IL13Rα2 Clone 1 humanized variant 1-h9 (VHH) VHH: EVQLVESGGGLVQPGGSLRLSCAASGFTSDYYIMGWFRQAPGKGLEWVSCISSKYANTYYADSVKGRFTISRDNAKNTLYLQMNSLRPEDTAVYYCAADTRRYTCPDIATMHRNFDSWGQGTLVTVSS
6 |  |  |  |  |  | 0.0063 µM | Single domain anti-MUC16 R3MU29 (VHH, also called Parental R3Mu29; parental (llama) R3Mu29; not shown: C-terminal tags (pMECS GG: HA tag and His6 tag; His-tagged in the Octet assay)) VHH: QVQLQESGGGLVQAGDSLRLSCAASGRAVSSLFMGWFRRAPGKERELVAAISRYSLYTYYADSVKGRFTISADNAKNAVYLQMNSLKPEDTAVYYCASKLEYTSNDYDSWGQGTQVTVSS
7 |  |  | 0.00063 µM | 2270 MFI | 1 fold |  | Llama single domain anti-IL13Rα2 Clone 1 (LSD1) (VHH, Captured on a Ni-NTA sensor in the Octet assay, so a His tag is implied; the tag is not described for this construct; also called parental; clone 1 parental) VHH: DVQLVESGGGLVQPGGSLRLSCAASGFTSDYYIIGWFRQAPGKEREGVSCISSKYANTNYADSVKGRFTQSRGAAKNTVYLQMNALKPEDTAVYYCAADTRRYTCPDIATMHRNFDSWGQGTQVTVSS

Second part, the binder before the results:

Row | Binder | Flow Cytometry MFI (human IL13Rα2 on cells [1]) | KD fold difference [2] | Kd [3] | Flow Cytometry MFI (human IL13Rα2 on cells [4]) | KD fold difference [5] | Kd [6]
8 | Llama single domain anti-IL13Rα2 Clone 2 (LSD2) (VHH, Captured on a Ni-NTA sensor, so a His tag is implied; the tag is not described; also called 2-parental; clone 2 parental) VHH: DVQLVESGGGLVQPGGSLRLSCEASGFASDDYIIGWFRQAPGKEREGVSCISSRYANTVYTDSVKGRFRISRGTAKNTVYLQMSALKPEDTAVYYCAMDSRRVTCPEISTMHRNFDSWGQGTQVTVSS | 3650 MFI | 1 fold | 0.81 µM |  |  | 
9 | anti-IL13Rα2 Clone 2 humanized variant 2-h6 (VHH) VHH: EVQLVESGGGLVQPGGSLRLSCAASGFASDDYIMGWFRQAPGKGLEGVSCISSRYANTVYADSVKGRFTISRDNAKNTLYLQMNSLRPEDTAVYYCAMDSRRVTCPEISTMHRNFDSWGQGTQVTVSS | 2870 MFI | 1.4 fold | 1.13 µM |  |  | 
10 | Humanized Llama Single domain anti-IL13Rα2 Clone 1-h8 (H1-LSD1) (VHH, Captured on a Ni-NTA sensor, so a His tag is implied; the tag is not described) VHH: EVQLVESGGGLVQPGGSLRLSCAASGFTSDYYIMGWFRQAPGKGLEGVSCISSKYANTYYADSVKGRFTISRDNAKNTLYLQMNSLRPEDTAVYYCAADTRRYTCPDIATMHRNFDSWGQGTLVTVSS |  |  | 0.00194 µM | 1240 MFI | 3.1 fold | 
11 | Humanized Llama Single domain anti-IL13Rα2 Clone 2-h8 (H1-LSD2) (VHH, Captured on a Ni-NTA sensor, so a His tag is implied; the tag is not described) VHH: EVQLVESGGGLVQPGGSLRLSCAASGFASDDYIMGWFRQAPGKGLEGVSCISSRYANTYYADSVKGRFTISRDNAKNTLYLQMNSLRPEDTAVYYCAMDSRRVTCPEISTMHRNFDSWGQGTLVTVSS | 2020 MFI | 1.2 fold | 0.95 µM |  |  | 
12 | Humanized Llama single domain anti-IL13Rα2 Clone 2-h10 (H2-LSD2) (VHH, Captured on a Ni-NTA sensor, so a His tag is implied; the tag is not described) VHH: EVQLVESGGGLVQPGGSLRLSCAASGFASDDYIMGWVRQAPGKGLEWVSCISSRYANTYYADSVKGRFTISRDNAKNTLYLQMNSLRPEDTAVYYCAMDSRRVTCPEISTMHRNFDSWGQGTLVTVSS | 1120 MFI | 4.1 fold | 3.31 µM |  |  | 
13 | Humanized Llama single domain anti-IL13Rα2 Clone 1-h10 (H2-LSD1) (VHH, Captured on a Ni-NTA sensor, so a His tag is implied; the tag is not described) VHH: EVQLVESGGGLVQPGGSLRLSCAASGFTSDYYIMGWVRQAPGKGLEWVSCISSKYANTYYADSVKGRFTISRDNAKNTLYLQMNSLRPEDTAVYYCAADTRRYTCPDIATMHRNFDSWGQGTLVTVSS |  |  | 0.00146 µM | 639 MFI | 2.3 fold | 
14 | single domain anti-MUC16 binder R3MU4 (VHH, also called Parental R3Mu4; parental (llama) R3Mu4; not shown: C-terminal tags (pMECS GG: HA tag and His6 tag; His-tagged in the Octet assay)) VHH: QVQLQESGGGLVQAGGSLRLSCAASGRTVSSLFMGWFRQAPGKERELVAAISRYSLYTYYADSVKGRFTISADNAKNAVYLQMNSLKPEDTAVYYCASKLEYTSNDYDSWGQGTQVTVSS |  |  |  |  |  | 0.0102 µM
15 | R3MU29h13 (96.7% human) (VHH, also called R3Mu29_h13#11; not shown: His tag (His-tagged MUC16 sdAbs)) VHH: EVQLVESGGGLVQPGGSLRLSCAASGRAVSSLFMGWFRQAPGKGLELVSAISRYSLYTYYADSVKGRFTISRDNAKNTLYLQMNSLRPEDTAVYYCASKLEYTSNDYDSWGQGTLVTVSS |  |  |  |  |  | 0.0083 µM
16 | R3MU4h12 (97.8% human) (VHH, also called R3Mu4 h12#2; not shown: His tag (His-tagged MUC16 sdAbs)) VHH: EVQLVESGGGLVQPGGSLRLSCAASGRTVSSLFMGWFRQAPGKGLEWVSAISRYSLYTYYADSVKGRFTISRDNAKNTLYLQMNSLRPEDTAVYYCASKLEYTSNDYDSWGQGTLVTVSS |  |  |  |  |  | 0.0946 µM
17 | R3MU4h11 (96.7% human) (VHH, also called R3Mu4 h11#2; not shown: His tag (His-tagged MUC16 sdAbs)) VHH: EVQLVESGGGLVQPGGSLRLSCAASGRTVSSLFMGWFRQAPGKGLELVSAISRYSLYTYYADSVKGRFTISRDNAKNTLYLQMNSLRPEDTAVYYCASKLEYTSNDYDSWGQGTLVTVSS |  |  |  |  |  | 0.0109 µM
18 | R3MU4h13 (98.9% human) (VHH, not shown: His tag (His-tagged MUC16 sdAbs)) VHH: EVQLVESGGGLVQPGGSLRLSCAASGRTVSSLFMGWVRQAPGKGLEWVSAISRYSLYTYYADSVKGRFTISRDNAKNTLYLQMNSLRPEDTAVYYCASKLEYTSNDYDSWGQGTLVTVSS |  |  |  |  |  | 0.0362 µM
19 | R3MU29h15 (98.9% human) (VHH, also called R3Mu29_h15#16; not shown: His tag (His-tagged MUC16 sdAbs)) VHH: EVQLVESGGGLVQPGGSLRLSCAASGRAVSSLFMGWVRQAPGKGLEWVSAISRYSLYTYYADSVKGRFTISRDNAKNTLYLQMNSLRPEDTAVYYCASKLEYTSNDYDSWGQGTLVTVSS |  |  |  |  |  | 0.0229 µM
20 | R3MU29h14 (97.8% human) (VHH, also called R3Mu29_h14#13; not shown: His tag (His-tagged MUC16 sdAbs)) VHH: EVQLVESGGGLVQPGGSLRLSCAASGRAVSSLFMGWFRQAPGKGLEWVSAISRYSLYTYYADSVKGRFTISRDNAKNTLYLQMNSLRPEDTAVYYCASKLEYTSNDYDSWGQGTLVTVSS |  |  |  |  |  | 0.0364 µM
